The target in the test is T1, Purified FLAG-tagged HPV18 E1 (human papillomavirus type 18, UniProt P06789 1-657).
T1 construct: E1 helicase of human papillomavirus type 18; also called F18E1; source: Sf9 cells, recombinant baculovirus (pFastBac1), purified; not shown: FLAG, N-terminal, kept
T1 sequence: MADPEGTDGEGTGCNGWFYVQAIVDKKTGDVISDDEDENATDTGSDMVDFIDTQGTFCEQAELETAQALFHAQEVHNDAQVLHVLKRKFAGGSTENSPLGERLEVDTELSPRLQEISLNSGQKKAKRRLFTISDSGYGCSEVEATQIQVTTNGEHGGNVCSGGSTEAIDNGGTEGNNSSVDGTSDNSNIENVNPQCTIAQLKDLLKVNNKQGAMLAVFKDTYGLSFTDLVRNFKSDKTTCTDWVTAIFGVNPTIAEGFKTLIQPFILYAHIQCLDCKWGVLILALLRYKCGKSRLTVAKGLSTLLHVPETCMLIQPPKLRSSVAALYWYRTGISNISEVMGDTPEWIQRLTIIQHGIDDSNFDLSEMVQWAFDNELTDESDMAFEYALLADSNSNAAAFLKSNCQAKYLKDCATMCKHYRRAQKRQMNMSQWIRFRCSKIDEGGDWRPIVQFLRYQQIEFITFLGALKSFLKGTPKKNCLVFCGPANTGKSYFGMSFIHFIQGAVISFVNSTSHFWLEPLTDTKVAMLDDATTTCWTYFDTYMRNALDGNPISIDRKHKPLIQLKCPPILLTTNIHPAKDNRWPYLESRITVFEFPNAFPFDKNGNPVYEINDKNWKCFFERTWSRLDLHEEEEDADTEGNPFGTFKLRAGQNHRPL
The experiment in a line: co-IP; 1 ug purified H16E1 and 4 ug purified F18E1 in 200 ul binding buffer (20 mM Tris-HCl pH 8.0, 150 mM NaCl, 2 mM MgCl2, 0.01% NP-40); IP with anti-FLAG antibody and protein G magnetic beads, 1 h at 4°C; blot with anti-6xHis antibody. Conditions: both partners purified.

B1: Purified 6xHis-tagged HPV16 E1 (enzyme)
chain: MADPAGTNGEEGTGCNGWFYVEAVVEKKTGDAISDDENENDSDTGEDLVDFIVNDNDYLTQAETETAHALFTAQEAKQHRDAVQVLKRKYLVSPLSDISGCVDNNISPRLKAICIEKQSRAAKRRLFESEDSGYGNTEVETQQMLQVEGRHETETPCSQYSGGSGGGCSQYSSGSGGEGVSERHTICQTPLTNILNVLKTSNAKAAMLAKFKELYGVSFSELVRPFKSNKSTCCDWCIAAFGLTPSIADSIKTLLQQYCLYLHIQSLACSWGMVVLLLVRYKCGKNRETIEKLLSKLLCVSPMCMMIEPPKLRSTAAALYWYKTGISNISEVYGDTPEWIQRQTVLQHSFNDCTFELSQMVQWAYDNDIVDDSEIAYKYAQLADTNSNASAFLKSNSQAKIVKDCATMCRHYKRAEKKQMSMSQWIKYRCDRVDDGGDWKQIVMFLRYQGVEFMSFLTALKRFLQGIPKKNCILLYGAANTGKSLFGMSLMKFLQGSVICFVNSKSHFWLQPLADAKIGMLDDATVPCWNYIDDNLRNALDGNLVSMDVKHRPLVQLKCPPLLITSNINAGTDSRWPYLHNRLVVFTFPNEFPFDENGNPVYELNDKNWKSFFSRTWSRLSLHEDEDKENDGDSLPTFKCVSGQNTNTL
notes: E1 helicase of human papillomavirus type 16; H16E1 gene cloned into pET-30; The pET-30 vector may add further vector-derived residues; also called H16E1; source: Escherichia coli BL21(DE3) pLysS (pET-30), purified
For B1, the binding result is listed as “binds”.

Source of the values: PMC3904167, “Replication interference between human papillomavirus types 16 and 18 mediated by heterologous E1 helicases” (Virology Journal, 2014).
